Reference: patent US20240189443A1, “PD-L1 AND TLR7 DOUBLE-TARGETING NANOBODY COUPLING DRUG AND USE THEREOF IN ANTI-TUMOR” (SHANGHAI INSTITUTE OF MATERIA MEDICA, CHINESE ACADEMY OF …, priority 2021, published 2024)

B1: anti-human PD-L1 nanobody h_Nb5 (Fc fusion)
chain: DVQLQESGGGAVQSGESLRLSCAASGRDLMFYDVAWFRQAPGKEREGVSYIRSSGTLTKYADSVKGRFTISRDNDKNTVSLQMNSLNPEDTAKYYCAARLQSATSHSDLREDEFNSWGQGTQVTVSS
notes: not shown: Fc of human IgG1 from vector pFUSE-hIgG1-Fc
B2: anti-human PD-L1 nanobody h_Nb6 (Fc fusion)
chain: DVQLQESGGGLAQPGGSLRLSCAASGFTFSSYAMSWARQAPGKGLEWVAGIYRGGSDTYYADSVKGRFTISRDNTKNTLYLQMNSLKPEDTALYYCIQGWGLGYANYDYWGQGTQVTVSS
notes: as for B1
B3: anti-human PD-L1 nanobody h_Nb9 (Fc fusion)
chain: DVQLQESGGGLVQPGGSLRLSCASSGSIFGLGVKGWYRQPPGNQREMVAQIISGGRISYADSVKGRFTISRDNAKNTVYLQMNSLKPEDTAVYYCNAWGPGQRNYWGRGTQVTVSS
notes: as for B1
B4: anti-human PD-L1 nanobody h_Nb12 (Fc fusion)
chain: DVQLQESGGGLVQAGGSLRLSCAASGRTFSSRAMGWFRQAPGKEREFVAAISGSGRNTYYADSVKGRFTISRDNAKNSVNLQMNSLKPEDTAVYYCNAAGGGITIATMTQRTQYDYWGQGTQVTVSS
notes: as for B1
B5: anti-human PD-L1 nanobody h_Nb13 (Fc fusion)
chain: DVQLQESGGGLVQPGGSLRLSCAASGSIFSINAMGWYRQAPGKSRELVAAITSGGSTNYADSVKGRFTISRDTAKNTVYLLMNSLEPEDTAVYYCNVERRRPPHYLSEYDFDWGQGTQVTVSS
notes: as for B1
B6: h_Nb1_G99R (VHH)
VHH: DVQLQESGGGLVQPGGSLRLSCAASGFTFSSYAMSWVRQAPGKGLEWVSDINSGGDNTDYADSVKGRFTISRDNAKNTLYLQMNSLKPEDTAVYYCARRPKLCFSSWGQGTQVTVSS
notes: also called 103
B7: h_Nb1_A61K (VHH)
VHH: DVQLQESGGGLVQPGGSLRLSCAASGFTFSSYAMSWVRQAPGKGLEWVSDINSGGDNTDYKDSVKGRFTISRDNAKNTLYLQMNSLKPEDTAVYYCARGPKLCFSSWGQGTQVTVSS
notes: also called 94
B8: h_Nb1_A61N (VHH)
VHH: DVQLQESGGGLVQPGGSLRLSCAASGFTFSSYAMSWVRQAPGKGLEWVSDINSGGDNTDYNDSVKGRFTISRDNAKNTLYLQMNSLKPEDTAVYYCARGPKLCFSSWGQGTQVTVSS
notes: also called 92
B9: h_Nb1_A61Q (VHH)
VHH: DVQLQESGGGLVQPGGSLRLSCAASGFTFSSYAMSWVRQAPGKGLEWVSDINSGGDNTDYQDSVKGRFTISRDNAKNTLYLQMNSLKPEDTAVYYCARGPKLCFSSWGQGTQVTVSS
notes: also called 93
B10: h_Nb1_C103K (VHH)
VHH: DVQLQESGGGLVQPGGSLRLSCAASGFTFSSYAMSWVRQAPGKGLEWVSDINSGGDNTDYADSVKGRFTISRDNAKNTLYLQMNSLKPEDTAVYYCARGPKLKFSSWGQGTQVTVSS
notes: also called 100
B11: h_Nb1_C103M (VHH)
VHH: DVQLQESGGGLVQPGGSLRLSCAASGFTFSSYAMSWVRQAPGKGLEWVSDINSGGDNTDYADSVKGRFTISRDNAKNTLYLQMNSLKPEDTAVYYCARGPKLMFSSWGQGTQVTVSS
B12: h_Nb1_C103W (VHH)
VHH: DVQLQESGGGLVQPGGSLRLSCAASGFTFSSYAMSWVRQAPGKGLEWVSDINSGGDNTDYADSVKGRFTISRDNAKNTLYLQMNSLKPEDTAVYYCARGPKLWFSSWGQGTQVTVSS
B13: h_Nb1_D59F (VHH)
VHH: DVQLQESGGGLVQPGGSLRLSCAASGFTFSSYAMSWVRQAPGKGLEWVSDINSGGDNTFYADSVKGRFTISRDNAKNTLYLQMNSLKPEDTAVYYCARGPKLCFSSWGQGTQVTVSS
notes: also called 97
B14: h_Nb1_D59M (VHH)
VHH: DVQLQESGGGLVQPGGSLRLSCAASGFTFSSYAMSWVRQAPGKGLEWVSDINSGGDNTMYADSVKGRFTISRDNAKNTLYLQMNSLKPEDTAVYYCARGPKLCFSSWGQGTQVTVSS
notes: also called 96
B15: h_Nb1_D59R (VHH)
VHH: DVQLQESGGGLVQPGGSLRLSCAASGFTFSSYAMSWVRQAPGKGLEWVSDINSGGDNTRYADSVKGRFTISRDNAKNTLYLQMNSLKPEDTAVYYCARGPKLCFSSWGQGTQVTVSS
notes: also called 95
B16: h_Nb1_D62W (VHH)
VHH: DVQLQESGGGLVQPGGSLRLSCAASGFTFSSYAMSWVRQAPGKGLEWVSDINSGGDNTDYAWSVKGRFTISRDNAKNTLYLQMNSLKPEDTAVYYCARGPKLCFSSWGQGTQVTVSS
notes: also called 98
B17: h_Nb1_D62Y (VHH)
VHH: DVQLQESGGGLVQPGGSLRLSCAASGFTFSSYAMSWVRQAPGKGLEWVSDINSGGDNTDYAYSVKGRFTISRDNAKNTLYLQMNSLKPEDTAVYYCARGPKLCFSSWGQGTQVTVSS
notes: also called 99
B18: h_Nb1_G99Q (VHH)
VHH: DVQLQESGGGLVQPGGSLRLSCAASGFTFSSYAMSWVRQAPGKGLEWVSDINSGGDNTDYADSVKGRFTISRDNAKNTLYLQMNSLKPEDTAVYYCARQPKLCFSSWGQGTQVTVSS
notes: also called 104
B19: h_Nb1_G99W (VHH)
VHH: DVQLQESGGGLVQPGGSLRLSCAASGFTFSSYAMSWVRQAPGKGLEWVSDINSGGDNTDYADSVKGRFTISRDNAKNTLYLQMNSLKPEDTAVYYCARWPKLCFSSWGQGTQVTVSS
notes: also called 105
B20: h_Nb1_G99Y (VHH)
VHH: DVQLQESGGGLVQPGGSLRLSCAASGFTFSSYAMSWVRQAPGKGLEWVSDINSGGDNTDYADSVKGRFTISRDNAKNTLYLQMNSLKPEDTAVYYCARYPKLCFSSWGQGTQVTVSS
notes: also called 106
B21: h_Nb2_G30R (VHH)
VHH: DVQLQESGGGLVQPGGSLRLSCAASGFTFRDRWMYWLRQAPGKGLEWVSSINPAGRSTYYADSVKGRFTISRDNAKNTLYLQMNSLKSEDTAVYYCTKDPGGYQKGQGTQVTVSS
notes: also called 107
B22: h_Nb2_F29R (VHH)
VHH: DVQLQESGGGLVQPGGSLRLSCAASGFTRGDRWMYWLRQAPGKGLEWVSSINPAGRSTYYADSVKGRFTISRDNAKNTLYLQMNSLKSEDTAVYYCTKDPGGYQKGQGTQVTVSS
notes: also called 113
B23: h_Nb2_F29W (VHH)
VHH: DVQLQESGGGLVQPGGSLRLSCAASGFTWGDRWMYWLRQAPGKGLEWVSSINPAGRSTYYADSVKGRFTISRDNAKNTLYLQMNSLKSEDTAVYYCTKDPGGYQKGQGTQVTVSS
notes: also called 114
B24: h_Nb2_G30F (VHH)
VHH: DVQLQESGGGLVQPGGSLRLSCAASGFTFFDRWMYWLRQAPGKGLEWVSSINPAGRSTYYADSVKGRFTISRDNAKNTLYLQMNSLKSEDTAVYYCTKDPGGYQKGQGTQVTVSS
notes: also called 108
B25: h_Nb2_G30W (VHH)
VHH: DVQLQESGGGLVQPGGSLRLSCAASGFTFWDRWMYWLRQAPGKGLEWVSSINPAGRSTYYADSVKGRFTISRDNAKNTLYLQMNSLKSEDTAVYYCTKDPGGYQKGQGTQVTVSS
notes: also called 109
B26: h_Nb2_G101R (VHH)
VHH: DVQLQESGGGLVQPGGSLRLSCAASGFTFGDRWMYWLRQAPGKGLEWVSSINPAGRSTYYADSVKGRFTISRDNAKNTLYLQMNSLKSEDTAVYYCTKDPRGYQKGQGTQVTVSS
notes: also called 110
B27: h_Nb2_G101W (VHH)
VHH: DVQLQESGGGLVQPGGSLRLSCAASGFTFGDRWMYWLRQAPGKGLEWVSSINPAGRSTYYADSVKGRFTISRDNAKNTLYLQMNSLKSEDTAVYYCTKDPWGYQKGQGTQVTVSS
notes: also called 111
B28: h_Nb2_P100E (VHH)
VHH: DVQLQESGGGLVQPGGSLRLSCAASGFTFGDRWMYWLRQAPGKGLEWVSSINPAGRSTYYADSVKGRFTISRDNAKNTLYLQMNSLKSEDTAVYYCTKDEGGYQKGQGTQVTVSS
B29: h_Nb2_P100Q (VHH)
VHH: DVQLQESGGGLVQPGGSLRLSCAASGFTFGDRWMYWLRQAPGKGLEWVSSINPAGRSTYYADSVKGRFTISRDNAKNTLYLQMNSLKSEDTAVYYCTKDQGGYQKGQGTQVTVSS
notes: also called 116
B30: h_Nb2_P100R (VHH)
VHH: DVQLQESGGGLVQPGGSLRLSCAASGFTFGDRWMYWLRQAPGKGLEWVSSINPAGRSTYYADSVKGRFTISRDNAKNTLYLQMNSLKSEDTAVYYCTKDRGGYQKGQGTQVTVSS
notes: also called 115

The binders below were run against T1, human PD-L1 on cell strain HEK293T/hPD-L1 (human, UniProt Q9NZQ7 19-290) (assay: flow cytometry on HEK293T/hPD-L1, 10 µg/mL, anti-human IgG Fc (FITC)).
T1 construct: whole, on cells
T1 sequence (Q9NZQ7 19-290): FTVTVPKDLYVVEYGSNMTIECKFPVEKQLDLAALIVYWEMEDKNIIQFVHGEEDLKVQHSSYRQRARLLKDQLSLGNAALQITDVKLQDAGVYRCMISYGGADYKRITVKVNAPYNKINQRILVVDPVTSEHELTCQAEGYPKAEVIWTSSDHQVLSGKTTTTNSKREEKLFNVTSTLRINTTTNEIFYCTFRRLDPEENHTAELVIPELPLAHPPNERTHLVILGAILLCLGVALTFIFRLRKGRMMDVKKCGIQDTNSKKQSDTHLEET
Description: The cell strain HEK293T/hPD-L1 was digested, and centrifugationwas performed to remove the supernatant; the cells were washed one time with PBS and the cell density was adjusted to 2.5×10⁶ cells/mL; each cell sample was added to a 100 μL cell suspension, that is, a 2.5×10⁵ cell/sample was comprised; different anti-human PD-L1 candidate nanobodies (the concentration is 10 μg/mL) were respectively added to the samples; incubating for 20 min at 4° C.; centrifuging, removing supernatant, and the cells were washing once with PBS; using diluted antibody anti-human IgG Fc (FITC) as secondary antibody, and the cells were re-suspended; incubating at 4° C. for 20 min; centrifuging, removing supernatant, the cells were washing twice with PBS, and transferred to a flow tube; and was performed on-machine detection by using a flow cytometer to obtain the binding activity of the candidate nanobody and human PD-L1, as shown in FIG. 13.
B1: binds. B2: binds. B3: binds. B4: binds. B5: binds.

These binders were tested against T2, PD-L1 (human PD-L1 protein of the ELISA of Example 16) (human, UniProt Q9NZQ7 19-238, limits assumed) (assay: ELISA; affinity relative to original antibody h_Nb1 VHH (SEQ ID NO.21)).
T2 sequence (Q9NZQ7 19-238 limits assumed): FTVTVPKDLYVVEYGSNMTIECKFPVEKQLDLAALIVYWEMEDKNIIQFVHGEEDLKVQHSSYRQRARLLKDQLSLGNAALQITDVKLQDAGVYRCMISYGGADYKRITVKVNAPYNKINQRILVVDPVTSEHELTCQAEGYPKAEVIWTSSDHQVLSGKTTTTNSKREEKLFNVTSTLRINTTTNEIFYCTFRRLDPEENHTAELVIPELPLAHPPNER
B6 was tested, and the Increased relative affinity was 12.1 relative. B7 gave an Increased relative affinity of 4.12 relative. In the case of B8, the Increased relative affinity is reported as 5.13 relative. B9 showed an Increased relative affinity of 4.66 relative. Work on B10 yielded an Increased relative affinity of 3.31 relative. B11 gave an Increased relative affinity of 3.38 relative. In the case of B12, the Increased relative affinity is reported as 3.83 relative. Binder B13 has an Increased relative affinity of 5.12 relative. Binder B14 has an Increased relative affinity of 4.9 relative. B15 gave an Increased relative affinity of 4.28 relative. For B16, the Increased relative affinity was 11.7 relative. B17 showed an Increased relative affinity of 5.8 relative. Work on B18 yielded an Increased relative affinity of 6.16 relative. B19 showed an Increased relative affinity of 6.16 relative. For B20, the Increased relative affinity was 7.02 relative.

The binders below were run against T2, PD-L1 (human PD-L1 protein of the ELISA …) (assay: ELISA; affinity relative to original antibody h_Nb2 VHH (SEQ ID NO.25)).
Binder B21 has an Increased relative affinity of 6.23 relative. Binder B22 has an Increased relative affinity of 1.46 relative. With B23 the Increased relative affinity was 1.44 relative. Binder B24 has an Increased relative affinity of 5.11 relative. Work on B25 yielded an Increased relative affinity of 10 relative. In the case of B26, the Increased relative affinity is reported as 6.5 relative. With B27 the Increased relative affinity was 5.92 relative. B28 was tested, and the Increased relative affinity was 3.98 relative. B29 showed an Increased relative affinity of 3.41 relative. B30 gave an Increased relative affinity of 7.21 relative.
